Assay results: PMC2655680
Read-outs that look alike come from different tables or passages of the source.

Key:
[1] = molecular target: PNK-FHA (FHA domain of human polynucleotide kinase 3'-phosphatase, amino acids 1-109) (human) (UniProt Q96T60); assay: ITC
[2] = molecular target: PNK-FHA (FHA domain of human polynucleotide kinase 3'-phosphatase, amino acids 1-109) (human) (UniProt Q96T60); assay: ITC; remark: listed apart in the source

## XRCC1 peptide YAGpSTDENpTDSE, phosphorylated on Ser518 and Thr523
[1]
  Kd: 24.2 µM

## XRCC1 peptide YAGSpTDENTDSE, phosphorylated on Thr519
[1]
  Kd: 10.6 µM

## XRCC1 peptide YAGpSpTDENTDSE, phosphorylated on Ser518 and Thr519
[1]
  Kd: 1.23 µM
  stoichiometry N: 0.51

## XRCC1 peptide YAGpSpTDENpTDSE, phosphorylated on Ser518, Thr519 and Thr523
[1]
  stoichiometry N: 0.46

## XRCC1 peptide YAGSTDENpTDSE, phosphorylated on Thr523
[1]
  Kd: 13.5 µM

## XRCC1 peptide YAGSpTDENpTDSE, phosphorylated on Thr519 and Thr523
[1]
  Kd: 0.76 µM
  stoichiometry N: 0.51
[2]
  Kd: 0.7 µM
